In patent US20210403549A1:

Target: low density lipoprotein (LDL) (UniProt P04114)
Assay: bio-layer interferometry with LDL; beside the traces: clear dose-dependent binding

low density lipoprotein (LDL), sequence (P04114 28-4563 limits assumed): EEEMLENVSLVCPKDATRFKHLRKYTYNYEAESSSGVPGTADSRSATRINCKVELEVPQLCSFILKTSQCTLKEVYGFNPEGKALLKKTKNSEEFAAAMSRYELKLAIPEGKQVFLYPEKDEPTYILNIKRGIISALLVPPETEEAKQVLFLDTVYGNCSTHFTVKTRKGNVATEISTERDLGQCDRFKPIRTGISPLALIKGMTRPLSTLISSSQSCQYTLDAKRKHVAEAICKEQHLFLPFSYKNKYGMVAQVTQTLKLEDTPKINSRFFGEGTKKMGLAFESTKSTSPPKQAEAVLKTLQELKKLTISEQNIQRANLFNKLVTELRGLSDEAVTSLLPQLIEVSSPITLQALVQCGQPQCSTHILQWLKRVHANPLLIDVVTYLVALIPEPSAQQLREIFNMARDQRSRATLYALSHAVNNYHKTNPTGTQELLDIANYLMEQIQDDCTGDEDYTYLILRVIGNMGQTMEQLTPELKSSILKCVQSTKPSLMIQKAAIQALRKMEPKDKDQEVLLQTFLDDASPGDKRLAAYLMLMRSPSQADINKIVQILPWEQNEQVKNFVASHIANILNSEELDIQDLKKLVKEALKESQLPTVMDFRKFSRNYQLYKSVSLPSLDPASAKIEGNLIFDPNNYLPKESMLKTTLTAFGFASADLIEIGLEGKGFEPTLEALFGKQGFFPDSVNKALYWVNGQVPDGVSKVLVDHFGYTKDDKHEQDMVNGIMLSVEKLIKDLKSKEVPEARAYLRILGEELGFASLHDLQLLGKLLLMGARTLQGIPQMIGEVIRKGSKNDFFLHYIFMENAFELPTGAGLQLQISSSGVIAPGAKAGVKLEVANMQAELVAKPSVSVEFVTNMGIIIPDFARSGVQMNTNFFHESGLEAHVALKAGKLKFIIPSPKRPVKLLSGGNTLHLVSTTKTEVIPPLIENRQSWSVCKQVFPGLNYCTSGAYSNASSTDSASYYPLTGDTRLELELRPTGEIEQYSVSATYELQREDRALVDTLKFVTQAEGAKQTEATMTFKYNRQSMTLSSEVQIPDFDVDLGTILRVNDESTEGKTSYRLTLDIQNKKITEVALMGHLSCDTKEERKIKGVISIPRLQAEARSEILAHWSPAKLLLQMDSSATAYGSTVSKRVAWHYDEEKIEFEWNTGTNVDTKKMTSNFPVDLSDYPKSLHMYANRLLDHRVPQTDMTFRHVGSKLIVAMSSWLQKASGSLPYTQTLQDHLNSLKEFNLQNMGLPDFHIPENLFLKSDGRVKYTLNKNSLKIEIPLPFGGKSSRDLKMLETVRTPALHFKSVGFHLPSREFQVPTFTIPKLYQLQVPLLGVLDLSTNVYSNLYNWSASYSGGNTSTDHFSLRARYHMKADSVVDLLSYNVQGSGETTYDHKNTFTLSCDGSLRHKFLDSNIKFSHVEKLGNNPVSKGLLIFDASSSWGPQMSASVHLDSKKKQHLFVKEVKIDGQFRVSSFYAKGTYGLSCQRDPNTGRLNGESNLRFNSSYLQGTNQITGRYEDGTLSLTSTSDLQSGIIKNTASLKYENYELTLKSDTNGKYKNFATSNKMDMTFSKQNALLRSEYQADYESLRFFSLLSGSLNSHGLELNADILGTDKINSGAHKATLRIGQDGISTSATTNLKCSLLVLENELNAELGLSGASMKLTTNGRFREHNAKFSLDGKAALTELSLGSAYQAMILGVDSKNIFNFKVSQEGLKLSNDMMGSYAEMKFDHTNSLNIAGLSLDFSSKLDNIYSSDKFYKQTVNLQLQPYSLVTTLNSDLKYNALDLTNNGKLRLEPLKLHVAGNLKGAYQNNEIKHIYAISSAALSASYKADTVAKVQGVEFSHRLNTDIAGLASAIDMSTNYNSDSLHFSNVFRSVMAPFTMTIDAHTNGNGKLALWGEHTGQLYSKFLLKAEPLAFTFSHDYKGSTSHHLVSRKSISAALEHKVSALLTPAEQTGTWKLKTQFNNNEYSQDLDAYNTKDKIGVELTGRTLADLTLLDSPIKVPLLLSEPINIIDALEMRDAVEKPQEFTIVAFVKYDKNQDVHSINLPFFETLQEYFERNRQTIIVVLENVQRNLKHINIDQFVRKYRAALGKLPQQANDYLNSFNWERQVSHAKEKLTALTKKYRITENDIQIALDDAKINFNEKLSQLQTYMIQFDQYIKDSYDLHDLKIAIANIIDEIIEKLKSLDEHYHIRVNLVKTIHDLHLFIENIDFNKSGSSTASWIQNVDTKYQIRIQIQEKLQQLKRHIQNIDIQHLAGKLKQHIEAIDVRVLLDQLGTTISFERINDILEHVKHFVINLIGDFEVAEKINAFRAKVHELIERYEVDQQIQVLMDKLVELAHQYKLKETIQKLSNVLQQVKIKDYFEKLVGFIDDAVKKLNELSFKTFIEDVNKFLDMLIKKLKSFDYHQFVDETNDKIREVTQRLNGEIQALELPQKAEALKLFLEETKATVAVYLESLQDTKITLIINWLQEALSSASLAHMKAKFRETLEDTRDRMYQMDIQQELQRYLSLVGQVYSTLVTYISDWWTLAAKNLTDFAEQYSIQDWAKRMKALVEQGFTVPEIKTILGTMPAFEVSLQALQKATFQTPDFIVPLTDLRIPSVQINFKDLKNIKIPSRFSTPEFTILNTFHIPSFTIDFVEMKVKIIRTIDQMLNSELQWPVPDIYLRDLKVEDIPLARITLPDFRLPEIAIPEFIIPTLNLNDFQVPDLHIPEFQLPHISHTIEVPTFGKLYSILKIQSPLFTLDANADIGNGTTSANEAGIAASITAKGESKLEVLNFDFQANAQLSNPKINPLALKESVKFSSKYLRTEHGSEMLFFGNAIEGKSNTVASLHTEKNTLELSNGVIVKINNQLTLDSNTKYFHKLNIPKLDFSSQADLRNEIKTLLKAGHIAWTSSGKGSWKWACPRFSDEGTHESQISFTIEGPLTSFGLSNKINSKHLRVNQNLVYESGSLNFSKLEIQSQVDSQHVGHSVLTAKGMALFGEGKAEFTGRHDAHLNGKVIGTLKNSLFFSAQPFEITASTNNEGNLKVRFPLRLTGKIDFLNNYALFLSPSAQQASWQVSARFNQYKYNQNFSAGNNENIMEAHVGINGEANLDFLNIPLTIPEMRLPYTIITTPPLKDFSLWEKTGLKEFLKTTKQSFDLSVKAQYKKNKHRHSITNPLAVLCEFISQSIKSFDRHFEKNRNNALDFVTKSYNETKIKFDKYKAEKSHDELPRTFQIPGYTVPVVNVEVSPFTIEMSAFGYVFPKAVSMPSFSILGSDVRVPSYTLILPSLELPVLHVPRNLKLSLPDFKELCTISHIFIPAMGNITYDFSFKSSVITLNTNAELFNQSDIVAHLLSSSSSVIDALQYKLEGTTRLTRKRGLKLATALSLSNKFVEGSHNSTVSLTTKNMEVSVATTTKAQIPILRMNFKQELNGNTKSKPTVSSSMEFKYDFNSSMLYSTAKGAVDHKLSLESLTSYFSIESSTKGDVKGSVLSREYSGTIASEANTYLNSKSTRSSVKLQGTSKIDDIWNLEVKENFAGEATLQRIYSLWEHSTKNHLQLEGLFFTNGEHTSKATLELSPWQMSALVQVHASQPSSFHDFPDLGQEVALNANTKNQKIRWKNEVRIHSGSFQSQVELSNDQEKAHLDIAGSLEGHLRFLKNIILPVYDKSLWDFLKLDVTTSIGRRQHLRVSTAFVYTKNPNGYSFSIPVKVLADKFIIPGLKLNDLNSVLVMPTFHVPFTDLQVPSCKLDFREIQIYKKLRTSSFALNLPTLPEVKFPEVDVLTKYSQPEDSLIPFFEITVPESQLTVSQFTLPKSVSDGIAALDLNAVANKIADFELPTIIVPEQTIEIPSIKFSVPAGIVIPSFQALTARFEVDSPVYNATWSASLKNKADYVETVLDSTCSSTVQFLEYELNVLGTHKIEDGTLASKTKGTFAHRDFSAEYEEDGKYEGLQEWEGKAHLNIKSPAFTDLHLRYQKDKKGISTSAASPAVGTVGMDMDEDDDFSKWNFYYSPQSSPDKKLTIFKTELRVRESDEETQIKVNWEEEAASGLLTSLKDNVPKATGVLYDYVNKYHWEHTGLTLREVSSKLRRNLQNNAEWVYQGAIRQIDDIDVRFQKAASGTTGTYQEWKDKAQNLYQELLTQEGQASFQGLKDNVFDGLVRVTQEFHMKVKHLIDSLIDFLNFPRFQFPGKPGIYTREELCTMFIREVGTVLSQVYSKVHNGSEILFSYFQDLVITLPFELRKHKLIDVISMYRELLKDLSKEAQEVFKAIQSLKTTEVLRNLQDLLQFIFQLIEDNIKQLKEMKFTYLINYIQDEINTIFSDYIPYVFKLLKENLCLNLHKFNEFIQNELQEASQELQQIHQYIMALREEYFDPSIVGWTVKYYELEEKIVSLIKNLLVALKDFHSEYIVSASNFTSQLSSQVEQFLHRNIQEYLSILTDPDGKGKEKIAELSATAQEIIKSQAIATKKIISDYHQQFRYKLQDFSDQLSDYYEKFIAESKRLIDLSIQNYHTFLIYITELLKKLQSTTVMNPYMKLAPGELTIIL

Kd: 525 nM
Substance: ALK1-E75A-hsIgG-Fc (Fc fusion)
